Test results from US20190367612A1 (Daiichi Sankyo, published 2019).

B1: humanized anti-GPRC5D antibody h2B1_H2/L3 (antibody, human IgG1, kappa, V domains shown)
VH: QVQLVESGGGLVKPSQTLSLTCTFSGFSLNTYDMGVGWIRQPPGKGLEWIGNIWWDDDKYYNPSLKSRVTISKDTSNNQASLKLSSVTAADTAVYYCARIETVRVSRKGFAHWGQGTLVTVSS
VL: DTVMTQSPDSLAVSLGERATINCKASQSVGINVDWYQQKPGQPPKLLIYGASNRHTGVPDRFSGSGFGRDFTLTISSLQAEDVAVYYCLQHGSIPPTFGQGTKVEIKR
notes: Human IgG1 / kappa
B2: humanized anti-GPRC5D antibody h2B1_H4/L3 (antibody, human IgG1, kappa, V domains shown)
VH: QVTLKESGPALVKPTQTLTLTCTFSGFSLNTYDMGVGWIRQPPGKGLEWLANIWWDDDKYYSPSLKSRLTITKDTSNNQAVLTMTNMDPVDTATYYCARIETVRVSRKGFAHWGQGTLVTVSS
VL: DTVMTQSPDSLAVSLGERATINCKASQSVGINVDWYQQKPGQPPKLLIYGASNRHTGVPDRFSGSGFGRDFTLTISSLQAEDVAVYYCLQHGSIPPTFGQGTKVEIKR
notes: Human IgG1 / kappa
B3: humanized anti-GPRC5D antibody h2B1_H2/L5 (antibody, human IgG1, kappa, V domains shown)
VH: QVQLVESGGGLVKPSQTLSLTCTFSGFSLNTYDMGVGWIRQPPGKGLEWIGNIWWDDDKYYNPSLKSRVTISKDTSNNQASLKLSSVTAADTAVYYCARIETVRVSRKGFAHWGQGTLVTVSS
VL: ATRMTQSPSSFSASTGDRVTITCKASQSVGINVDWYQQKPGKSPKLLIYGASNRHTGVPSRFSGSGFGRDFTLTISSLQSEDFATYYCLQHGSIPPTFGGGTKVEIKR
notes: Human IgG1 / kappa
B4: humanized anti-GPRC5D antibody h2B1_H4/L4 (antibody, human IgG1, kappa, V domains shown)
VH: QVTLKESGPALVKPTQTLTLTCTFSGFSLNTYDMGVGWIRQPPGKGLEWLANIWWDDDKYYSPSLKSRLTITKDTSNNQAVLTMTNMDPVDTATYYCARIETVRVSRKGFAHWGQGTLVTVSS
VL: DTVMTQSPDSLAVSLGERATINCKASQSVGINVDWYQQKPGQSPKLLIYGASNRHTGVPDRFSGSGFGRDFTLTISSLQAEDVAVYYCLQHGSIPPTFGQGTKVEIKR
notes: Human IgG1 / kappa
B5: humanized anti-GPRC5D antibody h2B1_H3/L3 (antibody, human IgG1, kappa, V domains shown)
VH: QVQLVESGGGLVKPSQTLSLTCTFSGFSLNTYDMGVGWIRQPPGKGLEWIANIWWDDDKYYNPSLKSRVTISKDTSNNQASLKLSSVTAADTAVYYCARIETVRVSRKGFAHWGQGTLVTVSS
VL: DTVMTQSPDSLAVSLGERATINCKASQSVGINVDWYQQKPGQPPKLLIYGASNRHTGVPDRFSGSGFGRDFTLTISSLQAEDVAVYYCLQHGSIPPTFGQGTKVEIKR
notes: Human IgG1 / kappa
B6: humanized anti-GPRC5D antibody h2B1_H4/L1 (antibody, human IgG1, kappa, V domains shown)
VH: QVTLKESGPALVKPTQTLTLTCTFSGFSLNTYDMGVGWIRQPPGKGLEWLANIWWDDDKYYSPSLKSRLTITKDTSNNQAVLTMTNMDPVDTATYYCARIETVRVSRKGFAHWGQGTLVTVSS
VL: DTVMTQSPDSLAVSLGERATINCKASQSVGINVDWYQQKPGQPPKLLIYGASNRHTGVPDRFSGSGSGRDFTLTISSLQAEDVAVYYCLQHGSIPPTFGQGTKVEIKR
notes: Human IgG1 / kappa
B7: humanized anti-GPRC5D antibody h2B1_H1/L1 (antibody, human IgG1, kappa, V domains shown)
VH: QVQLVESGGGLVKPSQTLSLTCTFSGFSLNTYDMGVGWIRQPPGKGLEWIGNIWWDDDKYYNPSLKSRVTISVDTSKNQASLKLSSVTAADTAVYYCARIETVRVSRKGFAHWGQGTLVTVSS
VL: DTVMTQSPDSLAVSLGERATINCKASQSVGINVDWYQQKPGQPPKLLIYGASNRHTGVPDRFSGSGSGRDFTLTISSLQAEDVAVYYCLQHGSIPPTFGQGTKVEIKR
notes: Human IgG1 / kappa
B8: humanized anti-GPRC5D antibody h2B1_H2/L2 (antibody, human IgG1, kappa, V domains shown)
VH: QVQLVESGGGLVKPSQTLSLTCTFSGFSLNTYDMGVGWIRQPPGKGLEWIGNIWWDDDKYYNPSLKSRVTISKDTSNNQASLKLSSVTAADTAVYYCARIETVRVSRKGFAHWGQGTLVTVSS
VL: DTVMTQSPDSLAVSLGERATINCKASQSVGINVDWYQQKPGQPPKLLIYGASNRHTGVPDRFSGSGFGTDFTLTISSLQAEDVAVYYCLQHGSIPPTFGQGTKVEIKR
notes: Human IgG1 / kappa
B9: humanized anti-GPRC5D antibody h2B1_H2/L4 (antibody, human IgG1, kappa, V domains shown)
VH: QVQLVESGGGLVKPSQTLSLTCTFSGFSLNTYDMGVGWIRQPPGKGLEWIGNIWWDDDKYYNPSLKSRVTISKDTSNNQASLKLSSVTAADTAVYYCARIETVRVSRKGFAHWGQGTLVTVSS
VL: DTVMTQSPDSLAVSLGERATINCKASQSVGINVDWYQQKPGQSPKLLIYGASNRHTGVPDRFSGSGFGRDFTLTISSLQAEDVAVYYCLQHGSIPPTFGQGTKVEIKR
notes: Human IgG1 / kappa
B10: humanized anti-GPRC5D antibody h2B1_H3/L5 (antibody, human IgG1, kappa, V domains shown)
VH: QVQLVESGGGLVKPSQTLSLTCTFSGFSLNTYDMGVGWIRQPPGKGLEWIANIWWDDDKYYNPSLKSRVTISKDTSNNQASLKLSSVTAADTAVYYCARIETVRVSRKGFAHWGQGTLVTVSS
VL: ATRMTQSPSSFSASTGDRVTITCKASQSVGINVDWYQQKPGKSPKLLIYGASNRHTGVPSRFSGSGFGRDFTLTISSLQSEDFATYYCLQHGSIPPTFGGGTKVEIKR
notes: Human IgG1 / kappa
B11: humanized anti-GPRC5D antibody h2B1_H3/L4 (antibody, human IgG1, kappa, V domains shown)
VH: QVQLVESGGGLVKPSQTLSLTCTFSGFSLNTYDMGVGWIRQPPGKGLEWIANIWWDDDKYYNPSLKSRVTISKDTSNNQASLKLSSVTAADTAVYYCARIETVRVSRKGFAHWGQGTLVTVSS
VL: DTVMTQSPDSLAVSLGERATINCKASQSVGINVDWYQQKPGQSPKLLIYGASNRHTGVPDRFSGSGFGRDFTLTISSLQAEDVAVYYCLQHGSIPPTFGQGTKVEIKR
notes: Human IgG1 / kappa
B12: humanized anti-GPRC5D antibody h2B1_H4/L5 (antibody, human IgG1, kappa, V domains shown)
VH: QVTLKESGPALVKPTQTLTLTCTFSGFSLNTYDMGVGWIRQPPGKGLEWLANIWWDDDKYYSPSLKSRLTITKDTSNNQAVLTMTNMDPVDTATYYCARIETVRVSRKGFAHWGQGTLVTVSS
VL: ATRMTQSPSSFSASTGDRVTITCKASQSVGINVDWYQQKPGKSPKLLIYGASNRHTGVPSRFSGSGFGRDFTLTISSLQSEDFATYYCLQHGSIPPTFGGGTKVEIKR
notes: Human IgG1 / kappa
B13: anti-GPRC5D-anti-CD3 bispecific molecule C3048-C3E7035 (bispecific antibody)
scFv: GQVQLVQSGAEVKKPGSSVKVSCKASGGTFSRYAISWVRQAPGQGLEWMGGIIPIFGTANYAQKFQGRVTITADQSTRTAYMDLGRLRSEDTAVYYCALEGFRDSLKRNPFDIWGQGTMVTVSSGGGGSGGGGSGGGGSQSVVTQPPSVSAAPGQKVTISCSGGTTNIGSNYVSWYQQLPGTAPKFLMYENNKRPSGIPDRFSGSKSGTSATLAITGLQTGDEATYYCSTWDSSLNTGLFGGGTKLTVLGGGGSEVQLVESGGGLVQPGGSLRLSCAASGVTFNYYGMSWIRQAPGKGLEWVASITNSGGRIYYPDSVKGRFTISRENTQKTLYLQMNSLRAEDTAVYYCTLDGRDGWVAYWGQGTLVTVSSGGGGSGGGGSGGGGSMAQAVLTQPSSVSGVPGQRVTISCKRNTGNIGSNYVNWYQQLPGTAPKLLIYRDDKRPSGVPDRFSGSKSGTSASLAITGFQAEDEADYYCQSYSSGFIFGGGTKLTVLGAAAGAGGDYKDDDDKGAAAHHHHHH
notes: Tandem scFv
B14: anti-GPRC5D-anti-CD3 bispecific molecule C3022-C3E7035 (bispecific antibody)
scFv: GQVQLVQSGAEVKKPGASVKVSCKASGYTFTGYYMHWVRQAPGQGLEWMGRINPNSGGTNYAQKFQGRVTMTRDTSISTAYMELSGLRSDDTAVYYCASGSVRHPWGQGTLVTVSSGGGGSGGGGSGGGGSQPVLTQPPSASGTPGQRVTISCSGSRSNIGGNIVSWYQQFPGTAPRLLTYADNQRPSGVPDRFSGSKSGTSASLAISGLQSEDEADYYCAAWDDSLNGVVFGGGTKLTVLGGGGSEVQLVESGGGLVQPGGSLRLSCAASGVTFNYYGMSWIRQAPGKGLEWVASITNSGGRIYYPDSVKGRFTISRENTQKTLYLQMNSLRAEDTAVYYCTLDGRDGWVAYWGQGTLVTVSSGGGGSGGGGSGGGGSMAQAVLTQPSSVSGVPGQRVTISCKRNTGNIGSNYVNWYQQLPGTAPKLLIYRDDKRPSGVPDRFSGSKSGTSASLAITGFQAEDEADYYCQSYSSGFIFGGGTKLTVLGAAAGAGGDYKDDDDKGAAAHHHHHH
notes: Tandem scFv

target: T1, human GPRC5D (human, UniProt Q9NZD1 1-345); assay: flow cytometry on KHM-1B cells (human GPRC5D), culture supernatant, PE anti-human IgG Fc, rMFI over human IgG isotype control
T1 construct: whole, on cells; also called hGPRC5D; G-protein coupled receptor family C group 5 member D
Method: Human multiple myeloma cell line KHM-1B cells expressing GPRC5D were adjusted to a concentration of 2×10⁶ cells/mL with PBS containing 5% FBS, inoculated in an amount of 100 μL/well to a 96-well U-bottomed microplate, and centrifuged to remove a supernatant. The culture supernatant of each humanized anti-GPRC5D antibody obtained in Example 8)-3-1 or Human IgG isotype control antibody (Calbiochem/Merck Millipore Corp.) adjusted to 14 ng/mL to 30 μg/mL was added thereto in an amount of 100 μL/well, and the plate was left standing at 4° C. for 1 hour. The cells were washed twice with PBS containing 5% FBS. Then, R-Phycoerythrin AffiniPure F(ab′)2 Fragment Goat Anti-Human IgG, Fcγ Fragment Specific (Jackson ImmunoResearch Laboratories, Inc.) diluted 100-fold with PBS containing 5% FBS was added thereto in an amount of 100 μL/well, and the plate was left standing at 4° C. for 1 hour. The cells were washed twice with PBS containing 5% FBS and then resuspended in PBS containing 5% FBS, followed by detection using a flow cytometer (FACSCanto™ II; Becton, Dickinson and Company). The data was analyzed using Flowjo (Tree Star, Inc.). The PE fluorescence intensity of the cell fraction was plotted to a histogram, and the mean fluorescence intensity (MFI) was calculated. The MFI value of the control antibody was subtracted from the MFI value of the GPRC5D antibody to calculate a relative value of MFI (rMFI).

T1 sequence (Q9NZD1 whole entry): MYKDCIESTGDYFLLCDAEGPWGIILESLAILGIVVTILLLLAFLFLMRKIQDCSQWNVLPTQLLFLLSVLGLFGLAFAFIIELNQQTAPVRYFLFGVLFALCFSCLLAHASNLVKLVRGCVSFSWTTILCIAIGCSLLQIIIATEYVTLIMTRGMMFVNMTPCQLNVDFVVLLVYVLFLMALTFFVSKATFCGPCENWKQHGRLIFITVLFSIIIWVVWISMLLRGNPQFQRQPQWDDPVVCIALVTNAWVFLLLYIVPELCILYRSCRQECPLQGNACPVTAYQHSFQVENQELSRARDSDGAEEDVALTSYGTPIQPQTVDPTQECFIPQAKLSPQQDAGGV

Binding result, binds:
B1
B2
B3
B4
B5
B6
B7
B8
B9
B10
B11
B12

target: T1, human GPRC5D; assay: flow cytometry on A4/Fuk cells (endogenous human GPRC5D), Penta-His Alexa Fluor 488 detection, rMFI = MFI minus sample without antibody
Method: Lymphoma cell line A4/Fuk cells (JCRB Cell Bank) were adjusted to an appropriate concentration with PBS containing 5% FBS. LIVE/DEAD Fixable Near-IR Dead Cell Stain Kit was added to the cells, which were then left standing at 4° C. for 30 minutes. The cells were washed twice with PBS containing 5% FBS, then adjusted to a concentration of 1×10⁶ cells/mL with PBS containing 5% FBS, inoculated in an amount of 100 μL/well to a 96-well U-bottomed microplate, and centrifuged to remove a supernatant. Each anti-GPRC5D-anti-CD3 bispecific molecule (C2037-C3E7034 to C3022-C3E7036 prepared in Example 12) diluted with PBS containing 5% FBS were added thereto in an amount of 100 μL/well, and the plate was left standing at 4° C. for 60 minutes. The cells were washed twice with PBS containing 5% FBS. Then, Penta-His Alexa Fluor 488 diluted with PBS containing 5% FBS was added thereto in an amount of 30 μL/well, and the plate was left standing at 4° C. for 30 minutes. The cells were washed twice with PBS containing 5% FBS and then resuspended in PBS containing 5% FBS, followed by detection using a flow cytometer (FACSCanto™ II). The data was analyzed using Flowjo. The mean fluorescence intensity (MFI) of Alexa Fluor 488 in a fraction free from dead cells was calculated. The MFI value of the antibody-unsupplemented sample was subtracted from the MFI value of the antibody-supplemented sample to calculate a relative value of MFI (rMFI).

Binding result, binds:
B13
B14
